# Test results taken from US20230159662A1 (Kyowa Kirin, published 2023).
# Changes are numbered by the printed parent chain. In names and notes the source's numbering stands.
# B1: human IgG1 anti-human CCR4 antibody (KM2160), S239D/I332L (antibody)
# heavy: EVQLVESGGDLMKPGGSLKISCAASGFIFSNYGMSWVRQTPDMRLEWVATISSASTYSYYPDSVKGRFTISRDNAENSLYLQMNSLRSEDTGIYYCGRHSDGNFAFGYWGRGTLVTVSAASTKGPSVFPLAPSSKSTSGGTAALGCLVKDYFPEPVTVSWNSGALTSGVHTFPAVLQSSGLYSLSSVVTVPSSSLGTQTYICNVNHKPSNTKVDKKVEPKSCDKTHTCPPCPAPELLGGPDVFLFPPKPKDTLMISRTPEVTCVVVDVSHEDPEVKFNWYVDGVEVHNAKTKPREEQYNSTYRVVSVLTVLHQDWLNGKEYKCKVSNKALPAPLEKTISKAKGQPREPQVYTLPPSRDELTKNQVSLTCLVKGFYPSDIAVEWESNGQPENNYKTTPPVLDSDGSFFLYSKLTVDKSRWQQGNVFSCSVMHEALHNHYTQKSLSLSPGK
# light: DVLMTQTPLSLPVSLGDQASISCRSSRNIVHINGDTYLEWYLQRPGQSPKLLIYKVSNRFSGVPDRFSGSGSGTDFTLKISRVEAEDLGVYYCFQGSLLPWTFGGGTRLEIRRTVAAPSVFIFPPSDEQLKSGTASVVCLLNNFYPREAKVQWKVDNALQSGNSQESVTEQDSKDSTYSLSSTLTLSKADYEKHKVYACEVTHQGLSSPVTKSFNRGEC
# B2: human IgG1 anti-human CCR4 antibody (KM2160), S239D/I332D (antibody)
# heavy: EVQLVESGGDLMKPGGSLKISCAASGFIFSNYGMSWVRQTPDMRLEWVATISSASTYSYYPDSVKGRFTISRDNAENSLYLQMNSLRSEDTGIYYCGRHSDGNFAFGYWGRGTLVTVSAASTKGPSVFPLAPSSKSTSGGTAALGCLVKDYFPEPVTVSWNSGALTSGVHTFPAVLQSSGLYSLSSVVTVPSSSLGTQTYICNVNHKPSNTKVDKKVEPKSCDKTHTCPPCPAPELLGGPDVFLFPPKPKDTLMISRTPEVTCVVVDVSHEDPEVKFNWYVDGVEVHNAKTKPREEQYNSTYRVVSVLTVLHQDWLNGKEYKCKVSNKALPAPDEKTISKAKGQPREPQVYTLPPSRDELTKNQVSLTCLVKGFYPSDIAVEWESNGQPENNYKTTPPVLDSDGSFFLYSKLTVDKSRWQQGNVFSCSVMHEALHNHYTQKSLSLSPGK
# light: B1 light
# B3: human IgG1 anti-human CCR4 antibody (KM2160), S239D/K326E (antibody)
# heavy: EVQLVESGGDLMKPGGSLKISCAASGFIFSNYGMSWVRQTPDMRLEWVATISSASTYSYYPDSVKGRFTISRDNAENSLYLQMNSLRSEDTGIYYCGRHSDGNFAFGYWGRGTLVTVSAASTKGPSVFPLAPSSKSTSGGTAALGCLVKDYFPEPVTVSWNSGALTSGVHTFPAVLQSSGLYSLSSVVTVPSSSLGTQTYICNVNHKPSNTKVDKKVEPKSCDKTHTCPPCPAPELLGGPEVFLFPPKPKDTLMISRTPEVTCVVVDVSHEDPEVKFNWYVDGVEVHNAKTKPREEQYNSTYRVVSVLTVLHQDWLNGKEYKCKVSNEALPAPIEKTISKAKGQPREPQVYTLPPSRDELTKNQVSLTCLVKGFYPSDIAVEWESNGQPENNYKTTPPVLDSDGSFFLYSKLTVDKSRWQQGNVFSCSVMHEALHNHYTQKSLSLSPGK
# light: B1 light
# B4: human IgG1 anti-human CCR4 antibody (KM2160), S239D/I332F (antibody)
# heavy: not shown
# light: B1 light
# B5: human IgG1 anti-human CCR4 antibody (KM2160), S239D/I332A (antibody)
# heavy: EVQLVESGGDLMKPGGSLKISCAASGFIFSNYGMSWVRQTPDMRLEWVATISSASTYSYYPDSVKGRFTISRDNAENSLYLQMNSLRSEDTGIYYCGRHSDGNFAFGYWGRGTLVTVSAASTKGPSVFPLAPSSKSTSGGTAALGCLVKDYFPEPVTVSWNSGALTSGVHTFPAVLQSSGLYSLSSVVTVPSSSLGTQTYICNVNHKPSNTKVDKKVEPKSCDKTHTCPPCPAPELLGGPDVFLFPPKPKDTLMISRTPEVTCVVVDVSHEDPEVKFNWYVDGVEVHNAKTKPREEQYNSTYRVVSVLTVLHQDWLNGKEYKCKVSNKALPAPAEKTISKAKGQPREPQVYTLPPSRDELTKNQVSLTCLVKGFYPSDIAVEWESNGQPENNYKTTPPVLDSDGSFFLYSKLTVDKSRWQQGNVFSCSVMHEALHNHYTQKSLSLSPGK
# light: B1 light
# B6: human IgG1 anti-human CCR4 antibody (KM2160), S239D/I332W (antibody)
# heavy: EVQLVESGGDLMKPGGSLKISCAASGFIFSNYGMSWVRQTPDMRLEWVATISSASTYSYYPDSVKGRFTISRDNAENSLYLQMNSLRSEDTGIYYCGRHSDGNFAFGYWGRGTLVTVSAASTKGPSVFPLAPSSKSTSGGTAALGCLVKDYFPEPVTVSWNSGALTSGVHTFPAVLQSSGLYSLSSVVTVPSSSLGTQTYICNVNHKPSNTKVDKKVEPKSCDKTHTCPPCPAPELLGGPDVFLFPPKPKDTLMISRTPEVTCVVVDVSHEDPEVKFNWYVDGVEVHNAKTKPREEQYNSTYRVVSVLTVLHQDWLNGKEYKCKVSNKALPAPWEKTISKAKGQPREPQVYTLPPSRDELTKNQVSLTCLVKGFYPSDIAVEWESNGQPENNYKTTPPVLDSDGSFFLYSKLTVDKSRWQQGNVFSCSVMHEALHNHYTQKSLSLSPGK
# light: B1 light
# B7: human IgG1 anti-human CCR4 antibody (KM2160), S239D/I332Y (antibody)
# heavy: not shown
# light: B1 light
# B8: human IgG1 anti-human CCR4 antibody (KM2160), S239D/I332T (antibody)
# heavy: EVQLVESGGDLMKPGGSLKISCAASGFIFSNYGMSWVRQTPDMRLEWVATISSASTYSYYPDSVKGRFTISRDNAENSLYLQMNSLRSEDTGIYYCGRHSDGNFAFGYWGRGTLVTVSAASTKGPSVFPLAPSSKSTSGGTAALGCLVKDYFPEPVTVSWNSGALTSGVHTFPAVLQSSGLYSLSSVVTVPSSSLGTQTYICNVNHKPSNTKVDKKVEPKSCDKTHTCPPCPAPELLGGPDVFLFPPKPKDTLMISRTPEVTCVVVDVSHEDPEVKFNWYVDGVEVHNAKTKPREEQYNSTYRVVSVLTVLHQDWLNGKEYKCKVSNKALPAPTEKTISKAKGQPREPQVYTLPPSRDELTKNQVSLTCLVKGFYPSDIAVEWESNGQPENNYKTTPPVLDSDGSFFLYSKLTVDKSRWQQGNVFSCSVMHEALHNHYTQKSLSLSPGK
# light: B1 light
# B9: human IgG1 anti-human CCR4 antibody (KM2160), S239D/I332H (antibody)
# heavy: not shown
# light: B1 light
# B10: human IgG1 anti-human CCR4 antibody (KM2160), S239D/L326I (as printed) (antibody)
# heavy: not shown
# light: B1 light
# B11: human IgG1 anti-human CCR4 antibody (KM2160), S239D/K326L (antibody)
# heavy: not shown
# light: B1 light
# B12: human IgG1 anti-human CCR4 antibody (KM2160), S298A/E333A/K334A (AAA) (antibody)
# heavy: EVQLVESGGDLMKPGGSLKISCAASGFIFSNYGMSWVRQTPDMRLEWVATISSASTYSYYPDSVKGRFTISRDNAENSLYLQMNSLRSEDTGIYYCGRHSDGNFAFGYWGRGTLVTVSAASTKGPSVFPLAPSSKSTSGGTAALGCLVKDYFPEPVTVSWNSGALTSGVHTFPAVLQSSGLYSLSSVVTVPSSSLGTQTYICNVNHKPSNTKVDKKVEPKSCDKTHTCPPCPAPELLGGPSVFLFPPKPKDTLMISRTPEVTCVVVDVSHEDPEVKFNWYVDGVEVHNAKTKPREEQYNATYRVVSVLTVLHQDWLNGKEYKCKVSNKALPAPIAATISKAKGQPREPQVYTLPPSRDELTKNQVSLTCLVKGFYPSDIAVEWESNGQPENNYKTTPPVLDSDGSFFLYSKLTVDKSRWQQGNVFSCSVMHEALHNHYTQKSLSLSPGK
# light: B1 light
# B13: human IgG1 anti-human CCR4 antibody (KM2160), S298A/E333A/K334A (AAA)/G236S (antibody)
# heavy: B12 heavy with G238S
# light: B1 light
# B14: human IgG1 anti-human CCR4 antibody (KM2160), S298A/E333A/K334A (AAA)/E283L (antibody)
# heavy: B12 heavy with E285L
# light: B1 light
# B15: human IgG1 anti-human CCR4 antibody (KM2160), S298A/E333A/K334A (AAA)/A339T (antibody)
# heavy: B12 heavy with A341T
# light: B1 light
# B16: human IgG1 anti-human CCR4 antibody (KM2160), printed as S298A/E333A/K334A, CH of SEQ ID NO 120 (antibody)
# heavy: B12 heavy with A300T
# light: B1 light
# B17: human IgG1 anti-human CCR4 antibody (KM2160), S298A/E333A/K334A (AAA)/D265G (antibody)
# heavy: B12 heavy with D267G
# light: B1 light
# B18: human IgG1 anti-human CCR4 antibody (KM2160), S239D/I332E (DE) (antibody)
# heavy: not shown
# light: B1 light
# B19: human IgG1 anti-human CCR4 antibody (KM2160), S298A/E333A/K334A (AAA)/V379M (antibody)
# heavy: B12 heavy with V381M
# light: B1 light
# B20: human IgG1 anti-human CCR4 antibody (KM2160), S298A/E333A/K334A (AAA)/P247L/N421K (antibody)
# heavy: B12 heavy with P249L, N423K
# light: B1 light
# B21: human IgG1 anti-human CCR4 antibody (KM2160), S298A/E333A/K334A (AAA)/A330F (antibody)
# heavy: B12 heavy with A332F
# light: B1 light
# B22: human IgG1 anti-human CCR4 antibody (KM2160), S298A/E333A/K334A (AAA)/K326T (antibody)
# heavy: B12 heavy with K328T
# light: B1 light
# B23: human IgG1 anti-human CCR4 antibody (KM2160), S298A/E333A/K334A (AAA)/P247L (antibody)
# heavy: B12 heavy with P249L
# light: B1 light
# B24: human IgG1 anti-human CCR4 antibody (KM2160), S298A/E333A/K334E (antibody)
# heavy: B12 heavy with A336E
# light: B1 light
# B25: human IgG1 anti-human CCR4 antibody (KM2160), S298A/E333A/K334A (AAA)/S239D/I332E (antibody)
# heavy: B12 heavy with S241D, I334E
# light: B1 light
# B26: human IgG1 anti-human CCR4 antibody (KM2160), S298A/E333A/K334A (AAA)/Q295T (antibody)
# heavy: B12 heavy with Q297T
# light: B1 light
# B27: human IgG1 anti-human CCR4 antibody (KM2160), S298A/E333A/K334A (AAA)/L235T (antibody)
# heavy: B12 heavy with L237T
# light: B1 light
# B28: human IgG1 anti-human CCR4 antibody (KM2160), S298A/E333A/K334A (AAA)/K248M (antibody)
# heavy: B12 heavy with K250M
# light: B1 light
# B29: human IgG1 anti-human CCR4 antibody (KM2160), S298A/E333A/K334A (AAA)/S239D (antibody)
# heavy: B12 heavy with S241D
# light: B1 light
# B30: human IgG1 anti-human CCR4 antibody (KM2160), S298A/E333A/K334A (AAA)/F372Y (antibody)
# heavy: B12 heavy with F374Y
# light: B1 light
# B31: human IgG1 anti-human CCR4 antibody (KM2160), S298A/E333A/K334A (AAA)/A327D (antibody)
# heavy: B12 heavy with A329D
# light: B1 light
# B32: human IgG1 anti-human CCR4 antibody (KM2160), S239D (antibody)
# heavy: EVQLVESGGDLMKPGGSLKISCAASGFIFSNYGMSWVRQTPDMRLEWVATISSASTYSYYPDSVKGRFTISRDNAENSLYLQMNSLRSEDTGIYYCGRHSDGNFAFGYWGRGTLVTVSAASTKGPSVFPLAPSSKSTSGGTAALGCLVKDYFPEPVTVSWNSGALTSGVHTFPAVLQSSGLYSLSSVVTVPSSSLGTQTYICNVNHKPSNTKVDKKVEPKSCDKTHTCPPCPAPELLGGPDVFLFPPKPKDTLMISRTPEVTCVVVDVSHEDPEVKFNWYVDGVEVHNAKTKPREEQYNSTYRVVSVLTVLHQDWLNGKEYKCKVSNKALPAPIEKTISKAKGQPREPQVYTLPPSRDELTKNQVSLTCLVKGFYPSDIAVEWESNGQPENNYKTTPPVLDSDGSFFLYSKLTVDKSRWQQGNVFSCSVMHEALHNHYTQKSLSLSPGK
# light: B1 light
# B33: human IgG1 anti-human CCR4 antibody (KM2160), S298A/E333A/K334A (AAA)/P329R (antibody)
# heavy: B12 heavy with P331R
# light: B1 light
# B34: human IgG1 anti-human CCR4 antibody (KM2160), S298A/E333A/K334A (AAA)/E294W (antibody)
# heavy: B12 heavy with E296W
# light: B1 light
# B35: human IgG1 anti-human CCR4 antibody (KM2160), S298A/E333A/K334A (AAA)/R293P (antibody)
# heavy: B12 heavy with R294P
# light: B1 light
# B36: human IgG1 anti-human CCR4 antibody (KM2160), S239D/A330F (antibody)
# heavy: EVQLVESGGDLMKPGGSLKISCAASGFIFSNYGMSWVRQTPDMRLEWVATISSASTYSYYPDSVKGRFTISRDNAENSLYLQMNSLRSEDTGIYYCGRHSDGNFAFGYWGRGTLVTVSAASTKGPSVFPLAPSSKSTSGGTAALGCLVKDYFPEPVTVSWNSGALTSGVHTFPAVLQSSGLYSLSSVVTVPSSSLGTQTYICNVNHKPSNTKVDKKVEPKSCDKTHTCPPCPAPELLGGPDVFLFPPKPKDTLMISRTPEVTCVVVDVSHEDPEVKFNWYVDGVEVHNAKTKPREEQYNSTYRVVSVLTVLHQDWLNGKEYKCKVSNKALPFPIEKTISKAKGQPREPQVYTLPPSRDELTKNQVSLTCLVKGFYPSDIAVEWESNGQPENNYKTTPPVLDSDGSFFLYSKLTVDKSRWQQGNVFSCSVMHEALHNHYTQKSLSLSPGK
# light: B1 light
# B37: human IgG1 anti-human CCR4 antibody (KM2160), S239D/K326T (antibody)
# heavy: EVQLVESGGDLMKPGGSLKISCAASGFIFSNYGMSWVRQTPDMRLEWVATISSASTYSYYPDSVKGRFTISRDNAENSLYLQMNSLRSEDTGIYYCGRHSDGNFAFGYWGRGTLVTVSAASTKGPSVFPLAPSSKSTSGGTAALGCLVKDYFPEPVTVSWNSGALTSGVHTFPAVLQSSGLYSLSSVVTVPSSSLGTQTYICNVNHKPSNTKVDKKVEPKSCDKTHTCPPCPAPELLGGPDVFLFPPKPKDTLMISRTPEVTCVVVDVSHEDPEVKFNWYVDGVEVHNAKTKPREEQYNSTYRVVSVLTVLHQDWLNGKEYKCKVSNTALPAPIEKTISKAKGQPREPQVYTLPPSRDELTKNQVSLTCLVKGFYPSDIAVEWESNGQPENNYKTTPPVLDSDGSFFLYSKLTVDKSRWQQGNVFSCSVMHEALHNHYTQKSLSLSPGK
# light: B1 light
# B38: human IgG1 anti-human CCR4 antibody (KM2160), S298A/E333A/K334A (AAA)/H268E (antibody)
# heavy: B12 heavy with H270E
# light: B1 light
# B39: human IgG1 anti-human CCR4 antibody (KM2160), S239E (antibody)
# heavy: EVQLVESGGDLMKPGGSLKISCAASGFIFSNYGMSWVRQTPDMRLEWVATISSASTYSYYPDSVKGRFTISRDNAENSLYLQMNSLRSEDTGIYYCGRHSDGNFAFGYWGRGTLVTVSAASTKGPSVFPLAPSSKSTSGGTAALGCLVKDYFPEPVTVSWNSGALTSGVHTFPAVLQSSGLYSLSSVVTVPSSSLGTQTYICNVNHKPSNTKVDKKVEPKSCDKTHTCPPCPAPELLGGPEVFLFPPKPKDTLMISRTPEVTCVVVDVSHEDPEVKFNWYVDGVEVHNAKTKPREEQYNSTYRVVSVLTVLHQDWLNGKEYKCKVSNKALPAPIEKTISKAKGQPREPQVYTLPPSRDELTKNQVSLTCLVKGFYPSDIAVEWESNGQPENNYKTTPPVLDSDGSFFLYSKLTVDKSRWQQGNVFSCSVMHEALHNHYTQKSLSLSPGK
# light: B1 light
# B40: human IgG1 anti-human CCR4 antibody (KM2160), S298A/E333A/R292L/K334E (antibody)
# heavy: B12 heavy with R294L, A336E
# light: B1 light
# B41: human IgG1 anti-human CCR4 antibody (KM2160), S298A/E333A/K334A (AAA)/E258H (antibody)
# heavy: B12 heavy with E260H
# light: B1 light
# B42: human IgG1 anti-human CCR4 antibody (KM2160), S298A/E333A/K334A (AAA)/F243L (antibody)
# heavy: B12 heavy with F245L
# light: B1 light
# Biological target: T1, human CD16a (Val type) stably expressed on NK-92 cells (NK-92/CD16 transfectant) (human, UniProt P08637 17-254)
# Assay: cell-based or functional assay
# T1 sequence (P08637 17-254 F176V): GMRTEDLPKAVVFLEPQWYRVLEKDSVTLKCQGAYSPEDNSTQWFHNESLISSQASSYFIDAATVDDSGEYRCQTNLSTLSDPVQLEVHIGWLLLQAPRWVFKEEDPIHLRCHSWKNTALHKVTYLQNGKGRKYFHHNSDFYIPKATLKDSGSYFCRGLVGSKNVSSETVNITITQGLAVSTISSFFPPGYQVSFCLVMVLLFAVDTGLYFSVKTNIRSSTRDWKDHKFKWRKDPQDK
row,relative ADCC activity (AAA = 100),Binder
1,"82 relative, AAA at 0.1 µg/mL = 100",B1
2,"150 relative, AAA at 0.1 µg/mL = 100",B2
3,"147 relative, AAA at 0.1 µg/mL = 100",B3
4,"93 relative, AAA at 0.1 µg/mL = 100",B4
5,"94 relative, AAA at 0.1 µg/mL = 100",B5
6,"94 relative, AAA at 0.1 µg/mL = 100",B6
7,"123 relative, AAA at 0.1 µg/mL = 100",B7
8,"72 relative, AAA at 0.1 µg/mL = 100",B8
9,"84 relative, AAA at 0.1 µg/mL = 100",B9
10,"146 relative, AAA at 0.1 µg/mL = 100",B10
11,"113 relative, AAA at 0.1 µg/mL = 100",B11

# Biological target: T1, human CD16a (Val type) stably expressed …
# Assay: cell-based or functional assay
# Remark: another data set of the same source
row,relative ADCC activity (AAA = 100),Binder
1,"100 relative, AAA at 0.1 µg/mL = 100",B12
2,"-46 relative, AAA at 0.1 µg/mL = 100",B13
3,"82 relative, AAA at 0.1 µg/mL = 100",B14
4,"36 relative, AAA at 0.1 µg/mL = 100",B15
5,"-97 relative, AAA at 0.1 µg/mL = 100",B16
6,"-89 relative, AAA at 0.1 µg/mL = 100",B17
7,"201 relative, AAA at 0.1 µg/mL = 100",B18
8,"51 relative, AAA at 0.1 µg/mL = 100",B19
9,"175 relative, AAA at 0.1 µg/mL = 100",B20
10,"96 relative, AAA at 0.1 µg/mL = 100",B21
11,"136 relative, AAA at 0.1 µg/mL = 100",B22
12,"160 relative, AAA at 0.1 µg/mL = 100",B23
13,"114 relative, AAA at 0.1 µg/mL = 100",B24
14,"119 relative, AAA at 0.1 µg/mL = 100",B25
15,"4 relative, AAA at 0.1 µg/mL = 100",B26
16,"-69 relative, AAA at 0.1 µg/mL = 100",B27

row,relative ADCC activity (AAA = 100),Binder
1,"165 relative, AAA at 0.1 µg/mL = 100",B28
2,"291 relative, AAA at 0.1 µg/mL = 100",B29
3,"70 relative, AAA at 0.1 µg/mL = 100",B30
4,"-28 relative, AAA at 0.1 µg/mL = 100",B31
5,"116 relative, AAA at 0.1 µg/mL = 100",B32
6,"5 relative, AAA at 0.1 µg/mL = 100",B33
7,"171 relative, AAA at 0.1 µg/mL = 100",B34
8,"125 relative, AAA at 0.1 µg/mL = 100",B35
9,"161 relative, AAA at 0.1 µg/mL = 100",B36
10,"179 relative, AAA at 0.1 µg/mL = 100",B37
11,"164 relative, AAA at 0.1 µg/mL = 100",B38
12,"88 relative, AAA at 0.1 µg/mL = 100",B39
13,"163 relative, AAA at 0.1 µg/mL = 100",B40
14,"94 relative, AAA at 0.1 µg/mL = 100",B41
15,"79 relative, AAA at 0.1 µg/mL = 100",B42
